The record followed here is patent US20250262210A1 (TRUSTEES OF COLUMBIA UNIVERSITY IN THE CITY OF NEW YORK, published 2025).

For one test, the target named is T1, AMBRA1 (human, UniProt Q9C0C7 1-1298, limits assumed).
T1 sequence (looked up): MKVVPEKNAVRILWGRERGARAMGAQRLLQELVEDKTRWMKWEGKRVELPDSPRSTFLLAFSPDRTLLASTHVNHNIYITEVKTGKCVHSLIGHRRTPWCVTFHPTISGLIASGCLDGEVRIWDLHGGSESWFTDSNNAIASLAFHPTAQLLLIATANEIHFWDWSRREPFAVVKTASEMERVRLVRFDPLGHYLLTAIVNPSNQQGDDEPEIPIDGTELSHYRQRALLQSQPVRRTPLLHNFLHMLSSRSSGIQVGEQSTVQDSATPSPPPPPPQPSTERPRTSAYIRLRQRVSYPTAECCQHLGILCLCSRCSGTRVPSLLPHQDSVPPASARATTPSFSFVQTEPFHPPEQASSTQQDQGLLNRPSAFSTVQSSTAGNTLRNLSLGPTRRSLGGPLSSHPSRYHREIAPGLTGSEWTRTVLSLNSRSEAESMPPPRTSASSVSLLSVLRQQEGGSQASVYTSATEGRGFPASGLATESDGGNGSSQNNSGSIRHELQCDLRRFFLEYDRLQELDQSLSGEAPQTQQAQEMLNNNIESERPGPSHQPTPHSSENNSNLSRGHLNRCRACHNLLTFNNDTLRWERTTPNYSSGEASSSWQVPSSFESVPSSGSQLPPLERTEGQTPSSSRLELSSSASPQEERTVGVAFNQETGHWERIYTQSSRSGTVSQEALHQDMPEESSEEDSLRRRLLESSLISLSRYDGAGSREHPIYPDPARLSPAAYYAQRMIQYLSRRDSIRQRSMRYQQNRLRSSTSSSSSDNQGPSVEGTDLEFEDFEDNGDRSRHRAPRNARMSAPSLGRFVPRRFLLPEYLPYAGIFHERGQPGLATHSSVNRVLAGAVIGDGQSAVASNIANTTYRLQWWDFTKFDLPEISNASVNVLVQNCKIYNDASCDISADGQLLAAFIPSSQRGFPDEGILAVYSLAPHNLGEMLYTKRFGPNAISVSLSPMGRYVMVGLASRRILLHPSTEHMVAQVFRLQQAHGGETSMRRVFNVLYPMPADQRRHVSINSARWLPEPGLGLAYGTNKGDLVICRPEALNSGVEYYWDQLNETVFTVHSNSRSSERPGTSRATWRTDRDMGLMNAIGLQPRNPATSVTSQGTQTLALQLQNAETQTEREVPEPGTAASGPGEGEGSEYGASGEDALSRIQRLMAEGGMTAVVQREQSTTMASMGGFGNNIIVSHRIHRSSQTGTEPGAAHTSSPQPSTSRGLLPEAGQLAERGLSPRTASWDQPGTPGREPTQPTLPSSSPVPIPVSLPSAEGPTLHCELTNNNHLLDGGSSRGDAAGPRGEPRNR
Briefly: IP/MS, LZTR1 R810W-FLAG, U87. In short, it runs like this:
(§1)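 Extracted peptides in 3% acetonitrile/0.1% formic acid ran on a 50 cm C18 column into an Orbitrap Fusion, with MaxQuant identification and spectral counting.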

The target in the next test is CDC42BPA (human, UniProt Q5VT25 1-1732, limits assumed). As to the kind of experiment: IP/MS, LZTR1 R810W-FLAG, U87. The gist of the method: as §1
Chain of CDC42BPA (Q5VT25 whole entry): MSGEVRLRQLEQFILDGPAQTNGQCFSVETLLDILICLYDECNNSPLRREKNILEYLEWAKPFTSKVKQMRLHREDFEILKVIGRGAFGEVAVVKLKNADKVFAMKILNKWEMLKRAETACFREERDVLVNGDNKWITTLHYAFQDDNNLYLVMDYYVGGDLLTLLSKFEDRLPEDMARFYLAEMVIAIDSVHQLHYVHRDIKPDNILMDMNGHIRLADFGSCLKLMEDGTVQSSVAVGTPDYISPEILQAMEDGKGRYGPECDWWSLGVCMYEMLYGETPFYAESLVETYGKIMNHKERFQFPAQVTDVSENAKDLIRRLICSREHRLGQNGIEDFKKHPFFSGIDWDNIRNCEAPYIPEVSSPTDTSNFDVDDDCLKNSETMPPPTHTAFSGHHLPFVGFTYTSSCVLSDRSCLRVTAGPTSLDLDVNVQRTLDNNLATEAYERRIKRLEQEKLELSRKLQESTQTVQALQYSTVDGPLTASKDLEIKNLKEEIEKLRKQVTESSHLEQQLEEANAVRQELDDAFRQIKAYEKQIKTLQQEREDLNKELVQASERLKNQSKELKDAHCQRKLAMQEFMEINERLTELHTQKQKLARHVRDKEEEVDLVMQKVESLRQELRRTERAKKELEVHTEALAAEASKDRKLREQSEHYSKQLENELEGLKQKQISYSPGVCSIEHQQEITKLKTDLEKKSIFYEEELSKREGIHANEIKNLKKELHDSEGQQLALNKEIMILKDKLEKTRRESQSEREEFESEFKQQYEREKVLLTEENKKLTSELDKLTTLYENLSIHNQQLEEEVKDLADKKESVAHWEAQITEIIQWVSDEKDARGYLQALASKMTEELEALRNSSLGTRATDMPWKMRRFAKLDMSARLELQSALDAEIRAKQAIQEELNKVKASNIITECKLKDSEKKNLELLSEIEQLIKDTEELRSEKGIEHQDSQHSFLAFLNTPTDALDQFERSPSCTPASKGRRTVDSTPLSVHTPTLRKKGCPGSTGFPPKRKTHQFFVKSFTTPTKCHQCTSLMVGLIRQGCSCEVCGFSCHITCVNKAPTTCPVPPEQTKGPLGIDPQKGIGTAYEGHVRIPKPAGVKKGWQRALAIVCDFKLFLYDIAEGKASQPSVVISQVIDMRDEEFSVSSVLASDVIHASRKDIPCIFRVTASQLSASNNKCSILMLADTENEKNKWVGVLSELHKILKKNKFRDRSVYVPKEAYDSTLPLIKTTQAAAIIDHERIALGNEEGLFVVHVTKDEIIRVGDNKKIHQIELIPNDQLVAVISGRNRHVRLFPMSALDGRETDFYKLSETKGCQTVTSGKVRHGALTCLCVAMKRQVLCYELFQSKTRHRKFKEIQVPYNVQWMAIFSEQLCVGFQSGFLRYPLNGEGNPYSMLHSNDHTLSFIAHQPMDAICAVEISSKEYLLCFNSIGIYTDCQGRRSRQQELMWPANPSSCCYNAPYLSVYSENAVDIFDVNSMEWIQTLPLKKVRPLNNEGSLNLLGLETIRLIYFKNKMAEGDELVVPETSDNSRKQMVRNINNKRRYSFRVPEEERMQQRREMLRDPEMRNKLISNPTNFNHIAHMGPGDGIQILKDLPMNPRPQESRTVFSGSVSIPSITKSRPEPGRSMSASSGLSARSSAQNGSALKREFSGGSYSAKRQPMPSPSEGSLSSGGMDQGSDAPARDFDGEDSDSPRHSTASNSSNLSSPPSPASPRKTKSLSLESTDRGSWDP

B1: LZTR1 R810W-FLAG (other, human, UniProt Q8N653 1-840, looked up)
chain: MAGPGSTGGQIGAAALAGGARSKVAPSVDFDHSCSDSVEYLTLNFGPFETVHRWRRLPPCDEFVGARRSKHTVVAYKDAIYVFGGDNGKTMLNDLLRFDVKDCSWCRAFTTGTPPAPRYHHSAVVYGSSMFVFGGYTGDIYSNSNLKNKNDLFEYKFATGQWTEWKIEGRLPVARSAHGATVYSDKLWIFAGYDGNARLNDMWTIGLQDRELTCWEEVAQSGEIPPSCCNFPVAVCRDKMFVFSGQSGAKITNNLFQFEFKDKTWTRIPTEHLLRGSPPPPQRRYGHTMVAFDRHLYVFGGAADNTLPNELHCYDVDFQTWEVVQPSSDSEVGGAEVPERACASEEVPTLTYEERVGFKKSRDVFGLDFGTTSAKQPTQPASELPSGRLFHAAAVISDAMYIFGGTVDNNIRSGEMYRFQFSCYPKCTLHEDYGRLWESRQFCDVEFVLGEKEECVQGHVAIVTARSRWLRRKITQARERLAQKLEQEAAPVPREAPGVAAGGARPPLLHVAIREAEARPFEVLMQFLYTDKIKYPRKGHVEDVLLIMDVYKLALSFQLCRLEQLCRQYIEASVDLQNVLVVCESAARLQLSQLKEHCLNFVVKESHFNQVIMMKEFERLSSPLIVEIVRRKQQPPPRTPLDQPVDIGTSLIQDMKAYLEGAGAEFCDITLLLDGHPRPAHKAILAARSSYFEAMFRSFMPEDGQVNISIGEMVPSRQAFESMLRYIYYGEVNMPPEDSLYLFAAPYYYGFYNNRLQAYCKQNLEMNVTVQNVLQILEAADKTQALDMKRHCLHIIVHQFTKVSKLPTLWSLSQQLLLDIIDSLASHISDKQCAELGADI
notes: Stably expressed in U87 cells by lentivirus; also called LZTR1-FLAG-R810W; LZTR1 RW; not shown: FLAG tag
In the case of B1, the binding result with AMBRA1 and with CDC42BPA was “binds” throughout.
